Source: patent US20260109764A1 (CAEDO ONCOLOGY, published 2026)
Positions count from the first letter of the chain named. “And” between values parts separate entries of the source, which are not always exact repeats. Equal values may be shown once. Blank lines part the entries; values can stand above or below the binder they belong to.

How the values were obtained:
[1] = target: T1, recombinant biotinylated CD47 (recCD47, SinoBiological 12283-H27H-B) (UniProt Q08722 19-139, biotinylated (AVI-tag)); assay: SPR Biacore S200, biotinylated recCD47 on SA chip, fusion protein as analyte, single-cycle, 1:1 model, 25 C
T1 construct: Bought protein; also called recombinant CD47
Experimental: The binding affinity of CO201-scFv-Fc-mono as described in Example 4 to CD47 was determined via surface plasmon resonance (SPR) on a Biacore S200 system. Recombinant biotinylated CD47 was immobilized on an SA streptavidin chip to a level of 100 RU (in 10 mM NaAc pH 5.0). CO201-scFv-Fc-mono reacted with recombinant CD47 at gradient concentrations
(§1) A 1:1 binding model was used to fit the data. All curves are well fitted to the 1:1 model.

[2] = target: T2, human CD47, cell-surface (on Jurkat cells, human red blood cells) (human, UniProt Q08722 19-323); assay: flow cytometry on stimulated normal human B cells, FITC MFI against log µg/ml
T2 construct: also called Integrin Associated protein (IAP); MER6
Experimental: FIG. 6: Hemagglutination and binding of red blood cells (RBCs) by huCO-scFv. (A) 2% RBCs (v/v in PBS) were incubated with increasing concentrations of the indicated antibodies or fragments for 30 minutes. A small punctate circle indicates no hemagglutination, while a diffuse hazy pattern indicates hemagglutination. (B) 2% RBCs (v/v in PBS) were incubated with increasing concentrations of FITC-conjugated CO201-scFv and analyzed by flow cytometry. (C and D) B cells were isolated from buffycoats of healthy human donors using CD19 Dynabeads and stimulated with 1 μg/ml CpG and RP105 for 24 hours. (C) B cells were incubated with the indicated antibodies or fragments at increasing concentrations and analyzed for binding by flow cytometry. (D) B cells were incubated with the indicated antibodies or fragments at concentrations in μg/ml for 3 hours, followed by staining with Annexin V and 7-AAD. % PCD=Annexin V-positive cells.

[3] = target: T2, human CD47, cell-surface (on Jurkat …); assay: flow cytometry on Jurkat cells, FITC MFI against log µg/ml
[4] = target: T1, recombinant biotinylated CD47 (recCD47, …); assay: SPR Biacore S200, biotinylated recCD47 on SA chip, scFv as analyte, single-cycle, 1:1 model, 25 C
Experimental: The affinity of CO-1 scFv to CD47 was determined via surface plasmon resonance (SPR) on a Biacore S200 system. Recombinant biotinylated CD47 was immobilized on an SA streptavidin chip to a level of 100 RU (in 10 mM NaAc pH 5.0). CO-1 scFv reacted with recombinant CD47 at gradient concentrations
as §1

[5] = target: T2, human CD47, cell-surface (on Jurkat …); assay: flow cytometry on Jurkat cells, detection with anti-His6-FITC, four parameter curve fit
Experimental: PBS-washed cancer cell lines or RBCs were pelleted and washed with washing buffer (3% (w/v) BSA, 1% (w/v) sodium azide in PBS) and incubated with Human BD Fc Block for 10 minutes before being plated into a round-bottom 96 well plate (2.5×10⁵ cells per well). The cells were then incubated with various concentrations of CO-1 scFv, or appropriate isotype controls as indicated for 1 h on ice with slight agitation. All samples were prepared in duplicates. Cells were washed twice, resuspended in cold His staining solution (1 μg/ml His₆-FITC in washing buffer), and incubated for 30 minutes on ice with slight agitation. Cells were analyzed by flow cytometry after two washes. Excitation wavelength FITC: 488 nm, detection: 530/30 nm.
The cells were incubated with increasing concentrations of CO-1 scFv, or isotype control, followed by incubation with an anti-His, FITC secondary antibody. […] The EC₅₀ for CO-1 scFv was analyzed by four parameter […] curve fitting in GraphPad and determined to be 0.05 ng/ml.

[6] = target: T2, human CD47, cell-surface (on Jurkat …); assay: cell-based or functional assay
[7] = target: T2, human CD47, cell-surface (on Jurkat …); assay: flow cytometry, FITC-conjugated scFv on Jurkat cells, FITC MFI against log µg/ml
Experimental: FIG. 5: Binding of huCO-scFv to Jurkat cells. Jurkat cells incubated with increasing concentrations of FITC-conjugated huCO-scFv. FITC-intensity was analyzed by flow cytometry.
DPBS-washed cancer cell lines or RBCs were pelleted and washed with washing buffer (3% (w/v) BSA, 1% (w/v) sodium azide in DPBS) and incubated with Human BD Fc Block for 10 minutes before being plated into a round-bottom 96 well plate (2.5×10⁵ cells per well). The cells were then incubated with various concentrations of FITC-conjugated huCO-scFv, or human IgG4 isotype control as indicated for 1h on ice with slight agitation. All samples were prepared in duplicates. The cells were analyzed by flow cytometry after three washes in washing buffer. Excitation wavelength FITC: 488 nm, detection: 530/30 nm.

[8] = target: T1, recombinant biotinylated CD47 (recCD47, …); assay: SPR Biacore S200, biotinylated recCD47 on SA chip, scFv as analyte, single-cycle, 1:1 model, 25 C; remark: listed apart in the source
Experimental: The binding affinity of the huCO-mAbs to CD47 was determined via surface plasmon resonance (SPR) on a Biacore S200 system. Recombinant biotinylated CD47 was immobilized on an SA streptavidin chip to a level of 100 RU (in 10 mM NaAc pH5.0). […]
A 1:1 binding model was used to fit the data. All curves are well fitted to the 1:1 model. […] The affinity constant KD is calculated as kd/kₐ.

T1 sequence (Q08722 19-139 limits assumed): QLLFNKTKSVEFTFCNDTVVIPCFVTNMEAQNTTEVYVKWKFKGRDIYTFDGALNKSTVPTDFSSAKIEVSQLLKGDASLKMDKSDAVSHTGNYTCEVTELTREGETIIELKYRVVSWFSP
T2 sequence (Q08722 19-323 limits assumed): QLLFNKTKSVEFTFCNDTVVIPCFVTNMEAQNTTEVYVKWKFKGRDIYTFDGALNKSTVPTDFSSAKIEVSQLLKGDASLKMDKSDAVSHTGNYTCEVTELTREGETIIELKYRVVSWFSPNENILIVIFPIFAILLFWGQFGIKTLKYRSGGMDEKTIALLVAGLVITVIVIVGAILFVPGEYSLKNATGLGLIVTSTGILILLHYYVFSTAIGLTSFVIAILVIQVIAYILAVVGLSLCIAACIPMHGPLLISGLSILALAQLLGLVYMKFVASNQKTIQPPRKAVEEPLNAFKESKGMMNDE

Kd [1]: 97 pM
koff [1]: 0.0027 s⁻¹
kon [1]: 2.8e+07 M⁻¹ s⁻¹
B1: CO201-scFv-Fc-mono (Fc fusion)
chain 1: QVQLVQSGSELKKPGASVKVSCKASGYTFTNFGMHWVRQAPGQGLEWMGWINTYTGEPTYTDDFKGRFVFSLDTSVSTAYLQISSLKAEDTAVYYCARGDYRYGDSWGQGTTVTVSSGGGGSGGGGSGGGGSDIVMTQTPLSLSVTPGQPASISCRSSQSLVHSNGKTYLHWYLQKPGQPPQLLIYRVSNRFSGVPDRFSGSGSGTDFTLKISRVEAEDVGVYYCSQSTHVPFTFGQGTKLEIKSKYGPPCPSCPAPEFLGGPSVFLFPPKPKDTLMISRTPEVTCVVVDVSQEDPEVQFNWYVDGVEVHNAKTKPREEQFNSTYRVVSVLTVLHQDWLNGKEYKCKVSNKGLPSSIEKTISKAKGQPREPQVYTLPPSQEEMTKNQVSLWCLVKGFYPSDIAVEWESNGQPENNYKTTPPVLDSDGSFFLYSRLTVDKSRWQEGNVFSCSVMHEALHNHYTQKSLSLSLGK
chain 2: SKYGPPCPSCPAPEFLGGPSVFLFPPKPKDTLMISRTPEVTCVVVDVSQEDPEVQFNWYVDGVEVHNAKTKPREEQFNSTYRVVSVLTVLHQDWLNGKEYKCKVSNKGLPSSIEKTISKAKGQPREPQVYTLPPSQEEMTKNQVSLSCAVKGFYPSDIAVEWESNGQPENNYKTTPPVLDSDGSFFLVSRLTVDKSRWQEGNVFSCSVMHEALHNHYTQKSLSLSLGK
notes: Knob-hole heterodimer with a single scFv, 77.3 kDa; FITC-conjugated in the flow cytometry assay on RBCs; also called huCO201-scFv-Fc-mono; huCO-scFv-Fc-mono

EC50 (read off the curve) [2]: ~0.2 µg/mL
EC50 (read off the curve) [3]: ~0.3 µg/mL
B2: CO-1.4 (antibody, V domains shown)
VH: QIQLVQSGPELKKPGETVKISCKASGYTFTNFGMHWVKQAPGKGLKWMGWINTYTGEPTYTDDFKGRFAFSLETSASTAYLQINSLKNEDTATFFCTRGDYRYGDSWGQGTTLTVSS
VL: DVVMTQTPLSLPVSLGDQASISCRSSQSLVHSNGKTYLHWYLQKPGQSPKLLIYRVSNRFSGVPDRFSGSGSGTDFTLKISRIEAEDLGVYFCSQSTHVPFTFGSGTKLEIK
notes: Divalent comparator antibody against CD47; also called full length IgG4 format of the CO-1 antibody; chimeric IgG4 comparator antibody

Kd [4]: 179 pM and 180 pM
koff [4]: 0.0056 s⁻¹
kon [4]: 3.1e+07 M⁻¹ s⁻¹
EC50 [5]: 0.05 ng/mL
B3: CO-1 scFv (scFv)
scFv: QIQLVQSGPELKKPGETVKISCKASGYTFTNFGMHWVKQAPGKGLKWMGWINTYTGEPTYTDDFKGRFAFSLETSASTAYLQINSLKNEDTATFFCTRGDYRYGDSWGQGTTLTVSSGGGGSGGGGSGGGGSDVVMTQTPLSLPVSLGDQASISCRSSQSLVHSNGKTYLHWYLQKPGQSPKLLIYRVSNRFSGVPDRFSGSGSGTDFTLKISRIEAEDLGVYFCSQSTHVPFTFGSGTKLEIK
notes: Murine VH and VL of mCO-1 in single chain format; Detected on cells with anti-His6-FITC, so it carries a His tag; also called CO-1 scFv fragment; scFv fragment of mCO-1

EC50 (read off the curve) [7]: ~2 µg/mL
Kd [8]: 61 pM
koff [8]: 0.00026 s⁻¹
kon [8]: 4.3e+06 M⁻¹ s⁻¹
B4: CO201-scFv (scFv)
scFv: QVQLVQSGSELKKPGASVKVSCKASGYTFTNFGMHWVRQAPGQGLEWMGWINTYTGEPTYTDDFKGRFVFSLDTSVSTAYLQISSLKAEDTAVYYCARGDYRYGDSWGQGTTVTVSSGGGGSGGGGSGGGGSDIVMTQTPLSLSVTPGQPASISCRSSQSLVHSNGKTYLHWYLQKPGQPPQLLIYRVSNRFSGVPDRFSGSGSGTDFTLKISRVEAEDVGVYYCSQSTHVPFTFGQGTKLEIK
notes: FITC-conjugated in the flow cytometry assays, unconjugated in SPR; also called huCO-scFv (collective); humanized scFv version of CO201
programmed cell death (PCD) of Jurkat cells, Annexin V-positive cells after 3 hours [6]: ~60%

EC50 (read off the curve) [7]: ~1 µg/mL
Kd [8]: 48 pM
koff [8]: 0.00021 s⁻¹
kon [8]: 4.4e+06 M⁻¹ s⁻¹
B5: CO213-scFv (scFv)
scFv: B4 scFv with E46K
modifications: FITC-conjugated in the flow cytometry assays, sites not stated; unconjugated in SPR.
notes: FITC-conjugated in the flow cytometry assays, unconjugated in SPR; also called huCO-scFv (collective)
programmed cell death (PCD) of Jurkat cells, Annexin V-positive cells after 3 hours [6]: ~60%

EC50 (read off the curve) [2]: ~4 µg/mL
EC50 (read off the curve) [7]: ~2 µg/mL
Kd [8]: 33 pM
koff [8]: 0.00017 s⁻¹
kon [8]: 5.1e+06 M⁻¹ s⁻¹
B6: CO209-scFv (scFv)
scFv: B4 scFv with P180S, Q182K
modifications: FITC-conjugated in the flow cytometry assays, sites not stated; unconjugated in SPR.
notes: as for B5
programmed cell death (PCD) of Jurkat cells, Annexin V-positive cells after 3 hours [6]: ~60%
